Experimental data reported in US20080166293A1.

Target: human transferrin receptor (hTfR) (human) (UniProt P02786)
Assay: Scatchard analysis, 125I-labelled protein (tyrosine of the peptide iodinated) on CEF+hTfR cells on ice

Chain of human transferrin receptor (hTfR) (human) (P02786 whole entry): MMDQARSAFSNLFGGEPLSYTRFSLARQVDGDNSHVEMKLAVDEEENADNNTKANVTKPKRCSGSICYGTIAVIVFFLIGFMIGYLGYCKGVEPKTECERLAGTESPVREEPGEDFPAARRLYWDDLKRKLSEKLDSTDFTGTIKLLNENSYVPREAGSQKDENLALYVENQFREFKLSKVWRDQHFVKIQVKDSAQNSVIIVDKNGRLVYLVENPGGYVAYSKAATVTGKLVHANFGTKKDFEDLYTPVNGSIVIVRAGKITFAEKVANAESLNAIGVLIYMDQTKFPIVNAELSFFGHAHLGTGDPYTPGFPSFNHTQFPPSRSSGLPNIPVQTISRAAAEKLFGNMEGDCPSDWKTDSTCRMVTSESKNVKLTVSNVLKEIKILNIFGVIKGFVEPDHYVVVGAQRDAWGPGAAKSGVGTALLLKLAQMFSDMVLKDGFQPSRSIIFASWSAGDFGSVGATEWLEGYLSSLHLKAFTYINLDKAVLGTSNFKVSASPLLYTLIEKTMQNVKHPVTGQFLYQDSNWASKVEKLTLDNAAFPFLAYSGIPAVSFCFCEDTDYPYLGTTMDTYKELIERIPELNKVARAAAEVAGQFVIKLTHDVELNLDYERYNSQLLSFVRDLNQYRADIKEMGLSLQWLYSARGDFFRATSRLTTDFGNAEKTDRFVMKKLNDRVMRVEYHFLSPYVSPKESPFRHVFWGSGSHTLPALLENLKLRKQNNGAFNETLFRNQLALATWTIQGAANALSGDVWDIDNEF

Kd: 360 µM
Substance: GFP-HAIYPRH (Seq. ID No. 1)
